Target: C/EBPβ bZIP domain (mouse, UniProt P28033 221-296)
Experiment: fluorescence polarization

C/EBPβ bZIP domain, sequence (P28033 221-296): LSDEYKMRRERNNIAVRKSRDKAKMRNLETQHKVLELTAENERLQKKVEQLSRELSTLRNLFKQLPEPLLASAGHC

B1: FP_CREBmeth (half-CRE•C/EBP Il36A, methylated) (dsDNA)
DNA 1: CATCTTACGTCACCT
DNA 2: AGGTGACGTAAGATG
modifications: mC at strand 1 position 8 and strand 2 position 7 (CpG, both strands)
Kd: 100 ± 30 nM

Reference: doi:10.1101/2021.04.24.441265
